For this data set, the target named is U1A E19S (UniProt P09012 10-89, E19S). Kind of data set: fluorescence polarization. A general note: In fluorescence polarisation assays a small probe gives low polarisation when free and higher when bound to something large.
Chain of U1A E19S (P09012 10-89 E19S): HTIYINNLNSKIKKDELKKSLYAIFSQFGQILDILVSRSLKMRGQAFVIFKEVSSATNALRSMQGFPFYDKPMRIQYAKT

As to GGCAGAUCUGAGCCUGGGAGCUCUCUGCC (structured_RNA) [TAR RNA], the binding signal is ~1.6 fold lower affinity than without tRNA.

Source of the values: paper PMC4414246.
